Source: patent US20190202883A1 (Takeda / Millennium, published 2019)
One block for each binder: values may come before it. Square brackets hold non-standard residues; d marks the D form. Side chains are listed from the residue outwards. Phe(2-F) = N[C@@H](Cc1ccccc1F)C(=O)O; αMeF = C[C@](N)(Cc1ccccc1)C(=O)O; Iva = CC[C@](C)(N)C(=O)O; Oda = not defined here; Aib = CC(C)(N)C(=O)O

How the values were obtained:
Assay in all cases: cell-based or functional assay
[1] = biological target: T1, human NPY2R (human, UniProt P49146 1-381)
T1 sequence (looked up): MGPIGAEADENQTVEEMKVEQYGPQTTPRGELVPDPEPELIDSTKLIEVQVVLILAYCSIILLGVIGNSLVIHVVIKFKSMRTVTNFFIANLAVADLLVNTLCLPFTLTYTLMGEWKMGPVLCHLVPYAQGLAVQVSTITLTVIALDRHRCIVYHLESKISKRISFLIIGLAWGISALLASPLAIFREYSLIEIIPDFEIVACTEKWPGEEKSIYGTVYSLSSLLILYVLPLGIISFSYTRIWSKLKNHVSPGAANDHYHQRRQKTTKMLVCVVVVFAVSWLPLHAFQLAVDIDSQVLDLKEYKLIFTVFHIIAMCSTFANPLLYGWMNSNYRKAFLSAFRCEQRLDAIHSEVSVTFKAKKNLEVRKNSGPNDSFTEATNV

[2] = biological target: T2, human GIPR (human, UniProt P48546 22-466)
T2 sequence (looked up): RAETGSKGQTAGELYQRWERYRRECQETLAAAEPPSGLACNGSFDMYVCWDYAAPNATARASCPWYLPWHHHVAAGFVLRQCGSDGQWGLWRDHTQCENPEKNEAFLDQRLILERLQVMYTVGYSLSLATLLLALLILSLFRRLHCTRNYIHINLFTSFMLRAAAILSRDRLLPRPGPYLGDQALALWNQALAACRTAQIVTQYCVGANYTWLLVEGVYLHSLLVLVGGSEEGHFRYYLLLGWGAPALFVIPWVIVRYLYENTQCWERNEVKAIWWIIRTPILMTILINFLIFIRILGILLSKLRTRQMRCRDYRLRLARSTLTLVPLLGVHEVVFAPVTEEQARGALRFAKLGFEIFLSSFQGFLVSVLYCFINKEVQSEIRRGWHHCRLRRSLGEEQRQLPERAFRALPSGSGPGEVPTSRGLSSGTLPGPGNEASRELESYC

[3] = biological target: human GLP-1R (human, UniProt P43220 24-463)

Agonist activity (EC50), Cre-luc reporter assay [1]: 2.1 nM | Agonist activity (EC50), Cre-luc reporter assay [2]: 0.22 nM | Agonist activity (EC50), Cre-luc reporter assay [3]: 0.32 nM
B1: H-Tyr-Aib-Glu-Gly-Thr-αMePhe-Thr-Ser-Asp-Lys(-Gly-Gly-Gly-Gly-Oda)-Aib-Ile-Aib-Leu-Asp-Lys-Gln-Arg-Gln-Iva-Glu-Phe-Val-Arg-His-Leu-Leu-Asn-Lys-Aib-Thr-Arg-Gln-A … (peptide)
peptide: H-Y[Aib]EGT[αMeF]TSDK([Gly-Gly-Gly-Gly-Oda])[Aib]I[Aib]LDKQRQ[Iva]EFVRHLLNK[Aib]TRQRY-NH2
modifications: reading uncertain; also: printed as H-Tyr-Aib-Glu-Gly-Thr-αMePhe-Thr-Ser-Asp-Lys(-Gly-Gly-Gly-Gly-Oda)-Aib-Ile-Aib-Leu-Asp-Lys-Gln-Arg-Gln-Iva-Glu-Phe-Val-Arg-His-Leu-Leu-Asn-Lys-Aib-Thr-Arg-Gln-Arg-Tyr-NH2

Agonist activity (EC50), Cre-luc reporter assay [1]: 2.6 nM | Agonist activity (EC50), Cre-luc reporter assay [2]: 0.25 nM | Agonist activity (EC50), Cre-luc reporter assay [3]: 1.3 nM
B2: Me-Tyr-Aib-Glu-Gly-Thr-αMePhe-Thr-Ser-Asp-Lys(-Gly-Gly-Gly-Gly-Oda)-Ser-Ile-Aib-Leu-Glu-Lys-Gln-Arg-Gln-Iva-Glu-Phe-Val-Arg-His-Leu-Leu-Asn-Lys-Aib-Thr-Arg-Gln- … (peptide)
peptide: Me-Y[Aib]EGT[αMeF]TSDK([Gly-Gly-Gly-Gly-Oda])SI[Aib]LEKQRQ[Iva]EFVRHLLNK[Aib]TRQRY-NH2
modifications: reading uncertain; also: printed as Me-Tyr-Aib-Glu-Gly-Thr-αMePhe-Thr-Ser-Asp-Lys(-Gly-Gly-Gly-Gly-Oda)-Ser-Ile-Aib-Leu-Glu-Lys-Gln-Arg-Gln-Iva-Glu-Phe-Val-Arg-His-Leu-Leu-Asn-Lys-Aib-Thr-Arg-Gln-Arg-Tyr-NH2

Agonist activity (EC50), Cre-luc reporter assay [1]: 0.041 nM | Agonist activity (EC50), Cre-luc reporter assay [2]: 0.041 nM | Agonist activity (EC50), Cre-luc reporter assay [3]: 0.053 nM
B3: H-Tyr-Aib-Glu-Gly-Thr-αMePhe-Thr-Ser-Asp-Lys(-Gly-Gly-Gly-Gly-Pal)-Ser-Ile-Aib-Leu-Glu-Lys-Gln-Arg-Gln-Iva-Glu-Phe-Val-Arg-His-Leu-Leu-Asn-Lys-Aib-Thr-Arg-Gln-A … (peptide)
peptide: H-Y[Aib]EGT[αMeF]TSDK([Gly-Gly-Gly-Gly-Pal])SI[Aib]LEKQRQ[Iva]EFVRHLLNK[Aib]TRQRY-NH2

Agonist activity (EC50), Cre-luc reporter assay [1]: 0.1 nM | Agonist activity (EC50), Cre-luc reporter assay [2]: 0.068 nM | Agonist activity (EC50), Cre-luc reporter assay [3]: 0.083 nM
B4: Me-Tyr-Aib-Glu-Gly-Thr-αMePhe-Thr-Ser-Asp-Lys(-Gly-Gly-Gly-Gly-Pal)-Aib-Ile-Aib-Leu-Asp-Lys-Gln-Arg-Gln-Iva-Glu-Phe-Val-Arg-His-Leu-Leu-Asn-Lys-Aib-Thr-Arg-Gln- … (peptide)
peptide: Me-Y[Aib]EGT[αMeF]TSDK([Gly-Gly-Gly-Gly-Pal])[Aib]I[Aib]LDKQRQ[Iva]EFVRHLLNK[Aib]TRQRY-NH2

Agonist activity (EC50), Cre-luc reporter assay [1]: 0.049 nM | Agonist activity (EC50), Cre-luc reporter assay [2]: 0.052 nM | Agonist activity (EC50), Cre-luc reporter assay [3]: 0.048 nM
B5: Me-Tyr-Aib-Glu-Gly-Thr-αMePhe-Thr-Ser-Asp-Lys(-Gly-Gly-Gly-Gly-Pal)-Ser-Ile-Aib-Leu-Glu-Lys-Gln-Arg-Gln-Iva-Glu-Phe-Val-Arg-His-Leu-Leu-Asn-Lys-Aib-Thr-Arg-Gln- … (peptide)
peptide: Me-Y[Aib]EGT[αMeF]TSDK([Gly-Gly-Gly-Gly-Pal])SI[Aib]LEKQRQ[Iva]EFVRHLLNK[Aib]TRQRY-NH2

Agonist activity (EC50), Cre-luc reporter assay [1]: 1.1 nM | Agonist activity (EC50), Cre-luc reporter assay [2]: 0.36 nM | Agonist activity (EC50), Cre-luc reporter assay [3]: 0.53 nM
B6: H-Tyr-Aib-Glu-Gly-Thr-αMePhe-Thr-Ser-Asp-Lys(-Gly-Gly-Gly-Gly-Oda)-Ala-Ile-Aib-Leu-Glu-Lys-Gln-Arg-Gln-Iva-Glu-Phe-Val-Arg-His-Leu-Leu-Asn-Lys-Aib-Thr-Arg-Gln-A … (peptide)
peptide: H-Y[Aib]EGT[αMeF]TSDK([Gly-Gly-Gly-Gly-Oda])AI[Aib]LEKQRQ[Iva]EFVRHLLNK[Aib]TRQRY-NH2
modifications: reading uncertain; also: printed as H-Tyr-Aib-Glu-Gly-Thr-αMePhe-Thr-Ser-Asp-Lys(-Gly-Gly-Gly-Gly-Oda)-Ala-Ile-Aib-Leu-Glu-Lys-Gln-Arg-Gln-Iva-Glu-Phe-Val-Arg-His-Leu-Leu-Asn-Lys-Aib-Thr-Arg-Gln-Arg-Tyr-NH2

Agonist activity (EC50), Cre-luc reporter assay [1]: 1.3 nM | Agonist activity (EC50), Cre-luc reporter assay [2]: 0.41 nM | Agonist activity (EC50), Cre-luc reporter assay [3]: 0.61 nM
B7: H-Tyr-Aib-Glu-Gly-Thr-αMePhe-Thr-Ser-Asp-Lys(-Gly-Gly-Gly-Gly-Oda)-Aib-Ile-Aib-Leu-Asp-Lys-Gln-Arg-Gln-Iva-Glu-Phe-Val-Arg-His-Leu-Leu-Asn-Lys-Aib-Thr-Arg-Gln-A … (peptide)
peptide: H-Y[Aib]EGT[αMeF]TSDK([Gly-Gly-Gly-Gly-Oda])[Aib]I[Aib]LDKQRQ[Iva]EFVRHLLNK[Aib]TRQR[Phe(2-F)]-NH2
modifications: reading uncertain; also: printed as H-Tyr-Aib-Glu-Gly-Thr-αMePhe-Thr-Ser-Asp-Lys(-Gly-Gly-Gly-Gly-Oda)-Aib-Ile-Aib-Leu-Asp-Lys-Gln-Arg-Gln-Iva-Glu-Phe-Val-Arg-His-Leu-Leu-Asn-Lys-Aib-Thr-Arg-Gln-Arg-Phe(2-F)-NH2

Agonist activity (EC50), Cre-luc reporter assay [1]: 0.026 nM | Agonist activity (EC50), Cre-luc reporter assay [2]: 0.04 nM | Agonist activity (EC50), Cre-luc reporter assay [3]: 0.036 nM
B8: Me-Tyr-Aib-Glu-Gly-Thr-αMePhe-Thr-Ser-Asp-Lys(-Gly-Gly-Gly-Gly-Pal)-Ala-Ile-Aib-Leu-Glu-Lys-Gln-Arg-Gln-Iva-Glu-Phe-Val-Arg-His-Leu-Leu-Asn-Lys-Aib-Thr-Arg-Gln- … (peptide)
peptide: Me-Y[Aib]EGT[αMeF]TSDK([Gly-Gly-Gly-Gly-Pal])AI[Aib]LEKQRQ[Iva]EFVRHLLNK[Aib]TRQRY-NH2
